The values below come from US20240131065A1 (CRAGE MEDICAL, published 2024).

For this test, the target named is T1, CD94 monomeric Fc fusion protein (human, UniProt P0DOX5 223-449 = IgG part).
T1 construct: also called huFc(hole)-CD94-ECD and huFc(knob); human CD94 monomeric Fc fusion protein antigen
In words: phage display panning on coated CD94 monomeric Fc fusion protein, then ELISA. The method, then:
Briefly, immunotubes were coated with 10 μg/ml of the antigene CD94 monomeric Fc fusion protein prepared above, blocked with phosphate buffered saline (MPBS) comprising 3% […] for 2 hours at room temperature. In order to screen for antibodies that specifically bind to CD94, the phage library was added to the immunotubes coated with the antigen CD94 monomeric Fc fusion protein and bound for 1.5 hours. The non-specific phages were then washed away, and the bound phages were eluted with 100 mM triethylamine and infected E. coli TG1 in logarithmic growth phase. Expanded culture of the eluted phages, and the expanded phage library was purified using PEG/NaCl precipitation for the next round of screening.
A total of three rounds of screening were performed, and 9 positive clones that specifically bind to CD94 were obtained after three rounds of screening. These clones were subsequently subjected to ELISA and sequencing analysis, two unique sequences were selected, 2B1 and 2F1, respectively. The ELISA results are shown in FIG. 2 (NA is the blank control group).

B1: 2B1 (Fab, V domains shown)
VH: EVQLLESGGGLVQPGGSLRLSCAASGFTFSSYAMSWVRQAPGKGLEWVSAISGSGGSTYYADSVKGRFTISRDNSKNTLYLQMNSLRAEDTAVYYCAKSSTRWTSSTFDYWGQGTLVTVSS
VL: DIQMTQSPSTLSASVGDRVTITCRASQSISSWLAWYQQKPGKAPKLLIYDASSLESGVPSRFSGSGSGTEFTLTISSLQPDDFATYYCQQYYFYPYTFGQGTKVEIKR
notes: Clone from a fully human Fab phage display library; also called antibody 2B1; CD94-specific antibody
Consider B1, for which the binding result is listed as “binds”.
